Source: patent US20250026852A1 (Chugai, published 2025)
One block for each binder: values may come before it.

Columns and labels:
human CD3ed-Fc [1] = biological target: T1, human CD3ed-Fc (human); experiment: phage display: ELISA / panning of the immunized-alpaca VHH library (Example 5-1 or 5-2)
T1 construct: Biotinylated in culture by BirA; also called biotin-labeled protein containing human CD3 epsilon and human CD3 delta linked to a human antibody constant region; CD3 heterodimer fused with the antibody constant region
T1 chain 1: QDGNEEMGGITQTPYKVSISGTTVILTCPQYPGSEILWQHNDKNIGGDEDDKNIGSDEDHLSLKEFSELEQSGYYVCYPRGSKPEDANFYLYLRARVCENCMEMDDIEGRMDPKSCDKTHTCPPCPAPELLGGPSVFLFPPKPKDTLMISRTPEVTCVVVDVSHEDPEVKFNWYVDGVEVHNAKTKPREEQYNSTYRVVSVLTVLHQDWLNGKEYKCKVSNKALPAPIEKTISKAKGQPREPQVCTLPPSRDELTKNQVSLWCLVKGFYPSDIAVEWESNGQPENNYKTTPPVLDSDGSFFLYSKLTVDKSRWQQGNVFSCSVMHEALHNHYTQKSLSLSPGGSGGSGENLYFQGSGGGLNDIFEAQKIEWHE
T1 chain 2: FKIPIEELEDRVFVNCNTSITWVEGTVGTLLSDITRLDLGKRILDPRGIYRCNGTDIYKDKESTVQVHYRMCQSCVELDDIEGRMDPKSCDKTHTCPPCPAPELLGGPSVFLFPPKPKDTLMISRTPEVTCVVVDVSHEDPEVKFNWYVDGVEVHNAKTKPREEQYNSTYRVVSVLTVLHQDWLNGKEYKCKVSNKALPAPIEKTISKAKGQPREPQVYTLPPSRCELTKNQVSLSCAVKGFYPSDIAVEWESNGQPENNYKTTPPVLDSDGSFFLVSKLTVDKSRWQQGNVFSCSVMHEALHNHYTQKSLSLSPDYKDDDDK

human CD3ed-Fc [2] = biological target: T1, human CD3ed-Fc; experiment: BLI (Octet RED), human CD3ed-Fc on the sensor, protease-treated molecule as analyte
Procedure: The protease concentration was set to 25 nM, and Octet RED (Pall ForteBio Corp.) was used in the assay.
Next, the CD3 binding evaluation of VHH released by protease treatment was conducted in the same way as in Example 3.

20A11-G1m/VK2-28-k0MT = biological target: T2, 20A11-G1m/VK2-28-k0MT; experiment: BLI (Octet), in the same way as in Example 3
T2 construct: IgG antibody-like molecule; VHH 20A11 in place of VH

20A11hu-G1m/VK2-28-k0MT = biological target: T3, 20A11hu-G1m/VK2-28-k0MT (Homo sapiens (Human), UniProt P0DOX5 2-447 = IgG part); experiment: BLI (Octet), in the same way as in Example 3, 30 C or 25 C
T3 construct: IgG antibody-like molecule; VHH 20A11hu in place of VH
Procedure: Next, the IL-6R binding evaluation of VHH released by protease treatment was conducted at 30° C. or 25° C. in the same way as in Example 3.

IL6R90-G1m/lamL = biological target: T4, IL6R90-G1m/lamL (Homo sapiens (Human), UniProt P0DOY2 1-106); experiment: BLI (Octet HTX), molecule captured on Protein A biosensor, hsIL-6R as analyte, 30 C
T4 construct: IgG antibody-like molecule; VHH IL6R90 in place of VH
Procedure: (§1) The hsIL-6R binding evaluation of each molecule was conducted using Octet HTX (Pall ForteBio Corp.). Specifically, each molecule was allowed to bind to Biosensor/Protein A (ProA) (Pall ForteBio Corp., 18-5013), and hsIL-6R was allowed to act thereon, followed by binding evaluation at 30° C.

IL6R90-G1m/VK2-28-k0MT = biological target: T5, IL6R90-G1m/VK2-28-k0MT; experiment: as above
T5 construct: IgG antibody-like molecule; VHH IL6R90 in place of VH
Procedure: as §1

T2 sequence (heavy, as listed by the source, chain 1 of 2): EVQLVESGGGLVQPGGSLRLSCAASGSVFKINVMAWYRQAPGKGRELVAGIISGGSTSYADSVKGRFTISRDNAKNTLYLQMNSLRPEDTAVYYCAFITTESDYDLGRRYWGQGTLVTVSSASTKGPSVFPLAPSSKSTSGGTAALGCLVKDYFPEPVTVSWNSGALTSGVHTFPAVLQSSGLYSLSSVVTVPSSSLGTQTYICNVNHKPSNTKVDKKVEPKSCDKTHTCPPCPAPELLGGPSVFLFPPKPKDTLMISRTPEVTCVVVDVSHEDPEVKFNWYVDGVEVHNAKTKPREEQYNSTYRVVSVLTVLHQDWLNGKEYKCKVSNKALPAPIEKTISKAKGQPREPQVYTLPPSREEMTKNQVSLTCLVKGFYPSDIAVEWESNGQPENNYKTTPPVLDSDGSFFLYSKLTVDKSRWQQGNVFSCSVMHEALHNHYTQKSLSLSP
T2 sequence (light, as listed by the source, chain 2 of 2): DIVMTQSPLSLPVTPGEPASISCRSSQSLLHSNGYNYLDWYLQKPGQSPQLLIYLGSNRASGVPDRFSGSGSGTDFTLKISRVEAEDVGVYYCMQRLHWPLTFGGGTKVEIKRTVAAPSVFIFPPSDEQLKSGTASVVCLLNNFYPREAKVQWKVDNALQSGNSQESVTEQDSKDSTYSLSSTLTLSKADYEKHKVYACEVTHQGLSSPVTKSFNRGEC
T3 sequence (P0DOX5 other isoform, or with tags, fused parts or gaps, chain 1 of 2): as the sequence (heavy, as listed by the source, chain 1 of 2) above, with Y37V, R45L, L47W counted along it
T3 sequence (light, as listed by the source, chain 2 of 2): as the sequence (light, as listed by the source, chain 2 of 2) above
T5 sequence (light, as listed by the source, chain 2 of 2, other chains not shown): as the sequence (light, as listed by the source, chain 2 of 2) above

B1: bC3edL1R1N164H01 (VHH)
VHH: QVQLVESGGGLVQPGGSLRLSCAASGFTFDVYGMSWVRHSPGKGLEWVSTINWNGGSTYYAESMKGRFTISRDNAKNTVYLQMNSLKPEDTAVYYCAKFAPWDGDMEWGQGTQVTVSG
- binding result (human CD3ed-Fc [1]): binds

B2: bC3edL1R1N164H01-G1mISHI01/VK1-39-k0MT after protease (MT-SP1) treatment (VHH)
VHH: B1 VHH
notes: also called released VHH; not shown: residues of the protease cleavage site left at the C terminus
- binding result (human CD3ed-Fc [2]): binds

B3: bC3edL1R1N161H01 (VHH)
VHH: QVQLVESGGGLVQPGGSLRLSCAASGFPFDNYVMSWVRQAPGKGLEWISAISWNGGSTYYAESMKGRFTISRDNAKSTLYLQMNSLKSEDTAVYYCAKEPRVYYSGSPDYWGQGTQVTVSG
- binding result (human CD3ed-Fc [1]): binds

B4: bC3edL1R1N161H01-G1mISHI01/VK1-39-k0MT after protease (MT-SP1) treatment (VHH)
VHH: B3 VHH
notes: as for B2
- binding result (human CD3ed-Fc [2]): binds

Results, then the binder that gave them:

- binding result (human CD3ed-Fc [1]): binds
B5: bC3edL1R1N160H01 (VHH)
VHH: QVQLVESGGGLVQPGGSLRLSCAASGFTFNHCWMYWVRQAPGKGLEWVSVINTDGGSAYYADSVKGRFTISRDNAKNTLYLQMNSLKSEDTAVYYCARDWAPLVDYYYGMDYWGKGTLVTVSG

- binding result (human CD3ed-Fc [2]): binds
B6: bC3edL1R1N160H01-G1mISHI01/VK1-39-k0MT after protease (MT-SP1) treatment (VHH)
VHH: B5 VHH
notes: as for B2

- binding result (20A11-G1m/VK2-28-k0MT): binds
- binding result (20A11hu-G1m/VK2-28-k0MT): no binding
- binding result (IL6R90-G1m/lamL): binds
- binding result (IL6R90-G1m/VK2-28-k0MT): no binding
B7: soluble human IL-6R (receptor)
chain: LAPRRCPAQEVARGVLTSLPGDSVTLTCPGVEPEDNATVHWVLRKPAAGSHPSRWAGMGRRLLLRSVQLHDSGNYSCYRAGRPAGTVHLLVDVPPEEPQLSCFRKSPLSNVVCEWGPRSTPSLTTKAVLLVRKFQNSPAEDFQEPCQYSQESQKFSCQLAVPEGDSSFYIVSMCVASSVGSKFSKTQTFQGCGILQPDPPANITVTAVARNPRWLSVTWQDPHSWNSSFYRLRFELRYRAERSKTFTTWMVKDLQHHCVIHDAWSGLRHVVQLRAQEEFGQGEWSEWSPEAMGTPWTESRSPPAENEVSTPMQALTTNKDDDNILFRDSANATSLPVQ
notes: also called hsIL-6R; recombinant human IL-6R
